± gives the standard error. Fewer inactive variants are shown than the library holds.
B1: glmS ribozyme (parent)
chain: AUAAAAGCGCCAGAACUACAGAAAUGUAGUUGACGAGGAGGAGGUUUAUCGAAUUUUCGGCGGAUGCCUCCAAA

Variants of: B1
Test: self-cleavage kobs at 2500 uM GlcN6P; higher = faster cleavage; RNA array
Conditions: with glucosamine-6-phosphate
Method in brief: (§1)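 A hybridised Cy3 probe tracked barcoded ribozyme variants, transcribed in situ by E. coli RNA polymerase on sequenced MiSeq chips, at 37 °C. The variants received 40 μM to 10 mM glucosamine-6-phosphate in HEPES/KCl/Mg(OAc)2 buffer. kobs came from decay fits and kcat and KM from weighted Michaelis–Menten fits.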

Row | Variant | self-cleavage kobs at 2500 uM GlcN6P [s⁻¹]
1 | A6U G41C U65A G66C | < 1e-05
2 | C8U A15C C71G | < 1e-05
3 | G7A C8U A36G G60U | < 1e-05
4 | C16U C58U U69G | 7.44e-05 ± 2.1e-05
5 | G9U U55C U56G C67U | < 1e-05
6 | A14G A15U U31G G43U U45A | < 1e-05
7 | A15C U45A A64G | 0.00477 ± 0.002
8 | A12C C16U C50U | 3.9e-05 ± 1.5e-05
9 | C58G C67A C70U C71U | 7.14e-05 ± 2.7e-05
10 | C8U A39U A64U | < 1e-05
11 | U57A C61G C70G | 3.93e-05 ± 1.9e-05
12 | G7C G51U G66A C67U C68U | < 1e-05
13 | A33G G37A G62C | < 1e-05
14 | A12G U49G A64G | 9.53e-05 ± 2.8e-05
15 | A33G A53C U65A C67U | < 1e-05
16 | G32U G40U U45A | 4.53e-05 ± 1.3e-05
17 | G35A G37U G51C | < 1e-05
18 | G38U A42U U49A | < 1e-05
19 | A6G C34U A36C | < 1e-05
20 | G9A A15G C34G U55C C71G | < 1e-05
21 | U30C C58G C70U | 5.76e-05 ± 1.9e-05

Row | Variant | self-cleavage kobs at 2500 uM GlcN6P [s⁻¹]
22 | G9U C16A C34A C50G | 7.29e-05 ± 2.6e-05
23 | A12U G13U A33G A39U A48U | < 1e-05
24 | A14C C50A A53U C70G | 4.72e-05 ± 2e-05
25 | G9U G41U G60U C70U | < 1e-05
26 | A6G U55A U57G C61A | < 1e-05
27 | G9U U45G G62C G66C | < 1e-05
28 | G29U G32U A42G C71A | 4.56e-05 ± 1.7e-05
29 | A12C U31G G32A | 0.000161 ± 5.6e-05
30 | G44U G62C G66A C67G | < 1e-05
31 | A6U C8U C58G | < 1e-05
32 | G7U G32C U54A | < 1e-05
33 | C10U C16A U45C | < 1e-05
34 | G9C C11A G35A G37U A39C G59U | < 1e-05
35 | C8A G40U A53G | < 1e-05
36 | G13A G32C U54C | 0.000273 ± 9.2e-05
37 | G32A G41C C68U | < 1e-05
38 | C16A G63C C67G | < 1e-05
39 | G7C G38C G51U | < 1e-05
40 | A6G A12G G51U | < 1e-05
41 | G13U G41C G60A | < 1e-05
42 | C8G G35U A52G C61A | < 1e-05

Variants of: B1
Test: self-cleavage kobs at 10000 uM GlcN6P; higher = faster cleavage; RNA array
Conditions: with glucosamine-6-phosphate
Method in brief: as §1

Row | Variant | self-cleavage kobs at 10000 uM GlcN6P [s⁻¹]
43 | G9U U55C U56G C67U | < 1e-05
44 | A12G U49G A64G | 7.02e-05 ± 2e-05
